Reference: patent publication US20250154242A1 (ADAFRE BIOSCIENCES, published 2025)

Target: TNFR
Assay: cell-based or functional assay

- EC50, stimulation of HEK-Blue TNFα cells (SEAP reporter): 3.1 pM
B1: cynomolgus TNFα (ligand)
chain: VRSSSRTPSDKPVAHVVANPQAEGQLQWLNRRANALVANGVELTDNQLVVPSEGLYLIYSQVLFKGQGCPSNHVLLTHTISRIAVSYQTKVNLLSAIKSPCQRETPEGAEAKPWYEPIYLGGVFQLEKGDRLSAEINLPDYLDFAESGQVYFGIIAL
modifications: biotinylated in the binding ELISA (sites not given)
